T1: human DLL3 antigen (human, UniProt Q9NYJ7 27-492, limits assumed)
T1 construct: also called immobilized human DLL3; recombinant human DLL3
T1 sequence (looked up): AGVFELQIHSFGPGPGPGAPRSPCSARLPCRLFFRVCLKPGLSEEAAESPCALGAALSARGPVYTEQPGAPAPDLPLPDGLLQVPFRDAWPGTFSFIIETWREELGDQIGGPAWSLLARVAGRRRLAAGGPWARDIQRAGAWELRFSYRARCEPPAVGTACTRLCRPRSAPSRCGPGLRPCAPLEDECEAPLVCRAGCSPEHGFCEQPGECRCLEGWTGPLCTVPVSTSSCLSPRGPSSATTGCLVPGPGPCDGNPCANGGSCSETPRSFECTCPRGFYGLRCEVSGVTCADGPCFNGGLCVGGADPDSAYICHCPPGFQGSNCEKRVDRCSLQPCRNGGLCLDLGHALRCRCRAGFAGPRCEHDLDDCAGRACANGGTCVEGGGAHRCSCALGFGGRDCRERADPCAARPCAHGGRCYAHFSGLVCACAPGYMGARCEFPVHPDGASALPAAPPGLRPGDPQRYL


Molecular target: T1, human DLL3 antigen
Test: ELISA or flow cytometry screen

Binder | binding result
SC16.118 (antibody, V domains shown, murine mAb) VH: EVQLQQSGPDLVKPGASVKISCKASGYSFTGYYMHWVKQSHGKSLEWIGRVNPNNGGTSYNQKFKGKAILTADKSSSTAYMELRSLTSEDSAVYYCARGSYDYAEGWGQGTLVTVSA VL: DIVLTQSPASLAVSLGQRATISCKASQSVDYDGDSYLTWYQQKPGQPPKLLIYAASNLESGIPARFSGSGSGTDFTLNIHPVEEEDAATYYCQQSNEDPYTFGGGTKLEIKR | binds
SC16.134 (antibody, V domains shown, murine mAb) VH: EVQLQQSGPDLVKPGASVKISCKASGYSFTGYYMHWVKQSHGKRLEWIGRVNPNNGGTNYNQKFKGKAILTVDKSSSTAYMELRSLTSEDSAVYYCARGSYDNAEGWGQGTLVTVSA VL: DIVLTQSPASLAVSLGQRATISCKASQSVDHAGDSYMNWYQQKPGQPPKLLIYAASNLESGIPARFSGSGSGTDFTLNIHPVEEEDAATYYCQQSNEDPYTFGGGTKLEIKR | binds
SC16.121 (antibody, V domains shown, murine mAb) VH: EVQLVESGGGLVQPKGSLKLSCAASGFTFNTYAMNWVRQAPGKGLEWVARIRIKSNNYATYYADSVKDRFTISRDDSQNMLYLQMNNLKTEDTAVYYCVRQGYSYDWGPWFAYWGQGTLVTVSA VL: QIVLTQSPAIMSASPGEKVTITCSASSSVSYMHWFQQKPGTSPKLWIYSTSNLASGVPARFSGSGSGTSYSLTISRMEAEDAATYYCQQRSSYPPTFGGGTKLEIKR | binds
SC16.8 (antibody, V domains shown, murine mAb) VH: QAQLQQSGAELVRPGTSVKVSCKASGYAFTNYLIEWVKQRPGQGLEWIGVINPGTGGTNYNENFKGKATLTADKSSSTAYMQLSSLTSDDSAVYFCARSPYDYHEGAMDYWGQGTSVTVSS VL: EIQMTQSPSSMSASLGDRITITCQATQDIVKNLNWYQQKPGKPPSFLIYYAIELAEGVPSRFSGSGSGSDYSLTISNLESEDFADYYCLQFYEFPFTFGAGTKLELK | binds
SC16.81 (antibody, V domains shown, murine mAb) VH: QVQLKESGPVLVAPSQSLSITCTVSGFSLTSYGVHWVRQPPGKGLEWLGVIWAGGSTNYNSALMSRLSISKDNSKSQVFLKMNSLQTDDTAMYYCAKQGNFYAMDYWGQGTSVTVSS VL: QIVLTQSPAIMSASLGERVTLTCTASSSVSSSYLHWYQQKPGSSPKLWIYSTSNLASGVPTRFSGSGSGTSYSLRISSMEAEDAATYYCHQYNRSPLTFGAGTKLELK | binds
SC16.101 (antibody, V domains shown, murine mAb) VL: QIVLTQSPAIMSASLGERVTMTCTASSSVSSSYLHWYQQKPGSSPKLWIYSTSNLASGVPARFSGSESGTSYSLTISNMEAEDAATYYCHQYHRSPFTFGSGTKLEIK V domain: QVTLKESGPGILQPSQTLSLTCSFSGFSLSTSGMGVGWIRQPSGKGLEWLAHIWWDDVKRYNPALKSRLTISKDASSSQVFLKIASVDTAETATYYCAHILDRAYYFDYWGQGTTLTVTS | binds
SC16.123 (antibody, V domains shown, murine mAb) VH: QVALKESGPGILQPSQTLSLTCSFSGFSLSTSGMGVGWIRQPSGKGLEWLAHIWWDDVKRYNPALKSRLTISKDTSSSQVFLKIASVDTADTATYYCARMEDYGSSSYFDFWGHGTTLTVSS VL: QIVLTQSPAIMSASLGERVTMTCTASSSVSSSYLHWYQQKPGSSPKLWIYSTSNLASGVPARFSGSGSGTSYSLTISSMETEDAATYYCHQYHRSPFTFGSGTKLEIK | binds
SC16.10 (antibody, V domains shown, murine mAb) VH: QVTLKESGPGILQSSQTLSLTCSFSGFSLSTSGMGVGWIRQPSGKGLEWLAHIWWDDVKRYNPVLKSRLTISKDTSSSQVFLKIASVDTADTATYYCARLVDDLYYFDYWGQGTTLTVSS VL: QIVLTQSPAIMSASLGERVTMTCTASSSVSSSYLHWYQQKPGSSPKLWIYSTSNLASGVPTRFSGSGSGTSYSLTISSMEAEDAATYYCHQYHRSPFTFGSGTKLEIK | binds
SC16.117 (antibody, V domains shown, murine mAb) VH: QVQLKESGPGLVAPSQSLSIPCTVSGFSLTNYGVHWVRQPPGKGLEWLGVIWAGGITNYNSALMSRLSISEDNSKSQVFLKMNSLQTDDTAMYYCARNLGPYAMDYWGQGTSVTVSS VL: DIQMNQSPSSLSASLGDTITITCHVSQNINVWLSWYQQKPGNIPKLLIQKASNLHTGVPSRFSGSGSGTGFTLTISSLQPEDIATYYCQQGQSYPFTFGSGTKLEIK | binds
SC16.114 (antibody, V domains shown, murine mAb) VH: EVQLQQSGAELVKPGASVKLSCTASGFNIKDTYIHWVKQRPEQGLEWIGRIDPANGNTKYDPKFQGKATITPDTSSNTAYLQLSSLTSEDTAVYYCARSWRNYGSSFWYFDVWGAGTTVTVSS VL: QIVLSQSPAILSASPGEKVTMTCRASSSVSYMHWYQQKPGSSPKPWIYATSNLASGVPARFSGSGSGTSYSLTISRVEAEDAATYYCQQWSSNPYTFGGGTKLEIKR | binds
SC16.106 (antibody, V domains shown, murine mAb) VH: QVQLKQSGPGLVAPSQSLFITCTVSGFSLTSYEINWVRQPPGKGLEWLGVIWTGGSTNYNSALISRLSISKDNSKSLVFLKMNSLQTDDTAIYYCVRGVYAMDYWGQGTSVTVSS VL: DIKMTQSPSSMYASLGERVTITCKASQDINSYLSWFQQKPGKSPKTLIYRANRLVDGVPSRFSGSGSGQDYSLTISSLEYEDMGIYYCLQYDEFPFTFGSGTKLEIK | binds
SC16.88 (antibody, V domains shown, murine mAb) VH: QVQLQQSGAELARPGASVKLSCKASGYTCTSYWMQWVKQRPGQGLEWIGAIYPGDGDTRYTQKFKGKATLTADKSSSTAYMQLSSLASEDSAVYYCARGRRTEAWFAYWGQGTLVTVSA VL: not shown | binds
SC16.104 (antibody, V domains shown, murine mAb) VH: QVQLKESGPDLVQPSQTLSLTCTVSGFSLTFYGVHWVRQPPGKGLEWVGTMGWDDKKYYNSALKSRLSISRDTSKNQVFLKLSSLQTEDTAMYYCTRGGTGFDYWGQGTTLTVSS VL: QIVLSQSPAILSASPGEKVTMTCRASSSVSYIHWYRQKPGSSPKPWIYATSNLASGVPARFSGSGSGTSYSLTISRVEAEDAATYYCQQWSSNPPTFGAGTKLELK | binds
SC16.11 (antibody, V domains shown, murine mAb) VH: QIQLVQSGPELKKPGETVKISCKASGYTFTDYSMHWVKQAPGKGLKWMGWINTETVEPTYADDFMGRFAFSLETSASTAFLQINNLENEDTATYFCARFGSYAMDYWGQGTSVTVSS VL: not shown | binds
SC16.84 (antibody, V domains shown, murine mAb) VH: EVQLQQSGPELVKPGASMKISCKASGYSFTGYTMNWVKQSHGKNLEWIGLINPYNGGTTYNQKFKGKATLTVDKSSSTAYMELLSLTSEDSAVYYCALGYYGNYRRYFDVWGAGTTVTVSS VL: DIQMTQSPSSLSASLGGKVTITCKASQDIKKYIAWYQHKPGKGPRLLIHYTSTLEPGIPSRFSGSGSGRDYSFSISNLEPEDIATYYCLQYDILWTFGGGTKLEIK | binds
SC16.107 (antibody, V domains shown, murine mAb) VH: EVQLQQSGPELVKPGASVKMSCKASGYTFTNYVMHWVKQKPGQGLEWIGYINPYNDGTKYNEKFKGKATLTSDKSSTTAYMALSSLTSEDSAVYYCAVAYYSNWGFAYWGQGTLVTVSA VL: DIVMTQSHKFMSTSVGDRVSITCKASQDVNTAVGWYQQKPGQSPKLLIYSASYRYTGVPDRFTGSGSGTDFTFTISSVQAEDLAVYYCQQHYSSPYTFGGGTKLEIKR | binds
SC16.109 (antibody, V domains shown, murine mAb) VL: QIVLTQSPAIMSASPGEKVTMTCSASSSVSYMYWYQQKPGSSPRLLIYDTSNLASGVPVRFSGSGSGTSFSLTISRMEAEDTATYYCQEWSGNPLTFGDGTKLELK V domain: QIQLVQSGPELKKPGETVKISCKASGYTFTNYGMNWVKQAPGKGLKWMGWINTYTGEPAYADDFKGRFAFSLETSASAAYLQINNLKNEDTATFFCANMRPTRGFAYWGQGTLGTVSA | binds
SC16.122 (antibody, V domains shown, murine mAb) VH: EVQLVESGGGLVKPGGSLKLSCAASGFTFSDYYMFWVRQTPEKRLEWVATISDGGSYTYFPDSVKGRFTISRDNAQNNLYLQMSSLKSEDTAMYYCARAGTLYAMDYWGQGTSVTVSS VL: DIVMTQSQKFMSTSVGDRVSVTCKASQNVGTNVAWYQQKPGQSPKVLIYSASYRYSGVPDRFTGSGSGTDFTLTISNVQSEDLAEFFCQQYNSYPLTFGGGTKLEIK | binds
SC16.124 (antibody, V domains shown, murine mAb) VH: EVQLQQSGPELVKPGASVKMSCKASGYTFTSYVMHWVKQKPGQGLEWIGYINPYNDGTKYNEKFKGKATLTSDKSSSTAYMELSSLTSEDSAVYYCARGALYYGNYLGYFDVWGAGTTVTVSS VL: DIQMTQSPASQSASLGESVTITCLASQTIGTWLAWYQQKPGKSPQLLISAATSLADGVPSRFSGSGSGTKFSFKISSLQAEDFVSYYCQQLYSTPWTFGGGTKLEIK | binds
SC16.110 (antibody, V domains shown, murine mAb) VH: EVQLQQSGPGLVRTGASVKISCKASGYSFTGYYMHWVKQSHGKSLEWIGYISCYNGATTYNQNFKGKATFIVDTSSSTAYMQFNSLTSEDSAVYYCARSDGGHAMDYWGQGTSVTVSS VL: NIVMTQTPKFLLVSAGDRVTITCKASQSVSNDVAWYQQKPGQSPKLLIYYASNRYTGVPDRFTGSGYGTDFTFTISTVQAEDLAVYFCQQDYSSPPTFGGGTKLEIK | binds
SC16.111 (antibody, V domains shown, murine mAb) VH: EVQLQQSGPELEKPGASVKISCKASGYSFTGYNMNWVKQSNGKSLEWIGNIDPYYGGSSYKQKFEGKATLTVDKSSSTAYMQLKSLTSEDSAVYYCARGGSNFFDYWGQGTTLTVSS VL: DIQMTQSPASLAASVGETVTITCRASENIYYSLAWYQQKQGKSPQLLIYNANSLEDGVPSRFSGSGSGTQYSMKINSMQPEDTATYFCKQTYDVPLTFGAGTKLELK | binds
